Results taken from patent US20140105889A1 (published 2014).

T1: mouse FcRn (mouse, UniProt Q61559 22-297, limits assumed)
T1 construct: Soluble analyte in Biacore; also called mFcRn
T1 sequence (looked up) 1: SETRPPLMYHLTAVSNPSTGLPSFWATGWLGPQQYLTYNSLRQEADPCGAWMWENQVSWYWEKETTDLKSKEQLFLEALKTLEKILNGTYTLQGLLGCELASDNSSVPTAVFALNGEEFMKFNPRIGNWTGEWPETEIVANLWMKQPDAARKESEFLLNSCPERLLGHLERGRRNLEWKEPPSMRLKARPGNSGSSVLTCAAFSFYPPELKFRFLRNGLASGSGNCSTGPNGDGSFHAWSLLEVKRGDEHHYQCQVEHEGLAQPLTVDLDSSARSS
T1 sequence (looked up) 2: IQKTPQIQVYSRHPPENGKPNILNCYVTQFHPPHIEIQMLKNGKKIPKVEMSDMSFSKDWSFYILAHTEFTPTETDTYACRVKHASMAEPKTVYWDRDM

T2: FcγRIIb (human, UniProt P31994 43-217, limits assumed)
T2 construct: also called FcγIIB; FcgRIIb
T2 sequence: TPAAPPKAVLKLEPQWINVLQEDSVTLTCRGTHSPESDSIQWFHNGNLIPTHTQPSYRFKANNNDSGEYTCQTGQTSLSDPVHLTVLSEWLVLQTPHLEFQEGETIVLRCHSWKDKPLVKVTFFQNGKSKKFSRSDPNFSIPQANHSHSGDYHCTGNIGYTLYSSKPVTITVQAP

T3: FcγRIIa type H (human, UniProt P12318 36-217)
T3 construct: also called FcγRIIaH; FcγRIIa(H)
T3 sequence: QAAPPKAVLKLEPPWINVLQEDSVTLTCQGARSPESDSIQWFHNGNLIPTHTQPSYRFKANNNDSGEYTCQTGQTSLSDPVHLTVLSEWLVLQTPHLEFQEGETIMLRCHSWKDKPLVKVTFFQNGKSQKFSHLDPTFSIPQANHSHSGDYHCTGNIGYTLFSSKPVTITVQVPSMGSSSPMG

B1: antibody with mPM1H-mIgG1 heavy chain and L(WT)-CK light chain (antibody)
heavy: DVQLQESGPVLVKPSQSLSLTCTVTGYSITSDHAWSWIRQFPGNKLEWMGYISYSGITTYNPSLKSRISITRDTSKNQFFLQLNSVTTGDTSTYYCARSLARTTAMDYWGQGTSVTVSSAKTTPPSVYPLAPGSAAQTNSMVTLGCLVKGYFPEPVTVTWNSGSLSSGVHTFPAVLQSDLYTLSSSVTVPSSTWPSETVTCNVAHPASSTKVDKKIVPRDCGCKPCICTVPEVSSVFIFPPKPKDVLTITLTPKVTCVVVDISKDDPEVQFSWFVDDVEVHTAQTQPREEQFNSTFRSVSELPIMHQDWLNGKEFKCRVNSAAFPAPIEKTISKTKGRPKAPQVYTIPPPKEQMAKDKVSLTCMITDFFPEDITVEWQWNGQPAENYKNTQPIMDTDGSYFVYSKLNVQKSNWEAGNTFTCSVLHEGLHNHHTEKSLSHSPGK
light: not shown
notes: Natural mouse IgG1 constant region; In the Biacore assays the heavy chain was paired with L(WT)-CK; also called mPM1-mIgG1; copies: 2 + 2
B2: IL6R-BP179/IL6R-L (antibody, human IgG1)
heavy: QVQLQESGPGLVKPSETLSLTCAVSGHSISHDHAWSWVRQPPGEGLEWIGFISYSGITNYNPSLQGRVTISRDNSKNTLYLQMNSLRAEDTAVYYCARSLARTTAMDYWGEGTLVTVSSASTKGPSVFPLAPSSKSTSGGTAALGCLVKDYFPEPVTVSWNSGALTSGVHTFPAVLQSSGLYSLSSVVTVPSSSLGTQTYICNVNHKPSNTKVDKKVEPKSCDKTHTCPPCPAPELLGDDSVFLFPPKPKDTLMISRTPEVTCVVVDVSHEDGEVKFNWYVDGVEVHNAKTKPREEQYNSTYRVVSVLTVLHQDWLNGKEYKCKVSNAALPKPIEKTISKAKGQPREPQVYTLPPSRDELTKNQVSLTCLVKGFYPSDIAVEWESNGQPENNYKTTPPVLDSDGSFFLYSKLTVDKSRWQQGNVFSCSVMHEALHNHYTQESLSLSP
light: DIQMTQSPSSLSASVGDRVTITCRASQDISSYLNWYQQKPGKAPKLLIYYTSRLHSGVPSRFSGSGSGTDFTFTISSLQPEDIATYYCQQGNTLPYTFGQGTKVEIK
notes: EU numbering
B3: IL6R-BP180/IL6R-L (antibody, human IgG1)
heavy: QVQLQESGPGLVKPSETLSLTCAVSGHSISHDHAWSWVRQPPGEGLEWIGFISYSGITNYNPSLQGRVTISRDNSKNTLYLQMNSLRAEDTAVYYCARSLARTTAMDYWGEGTLVTVSSASTKGPSVFPLAPSSKSTSGGTAALGCLVKDYFPEPVTVSWNSGALTSGVHTFPAVLQSSGLYSLSSVVTVPSSSLGTQTYICNVNHKPSNTKVDKKVEPKSCDKTHTCPPCPAPELLGDDSVFLFPPKPKDTLMISRTPEVTCVVVDVSHEDGEVKFNWYVDGVEVHNAKTKPREEQYNSTYRVVSVLTVLHQDWLNGKEYKCKVSNKALPKPIEKTISKAKGQPREPQVYTLPPSRDELTKNQVSLTCLVKGFYPSDIAVEWESNGQPENNYKTTPPVLDSDGSFFLYSKLTVDKSRWQQGNVFSCSVMHEALHNHYTQESLSLSP
light: DIQMTQSPSSLSASVGDRVTITCRASQDISSYLNWYQQKPGKAPKLLIYYTSRLHSGVPSRFSGSGSGTDFTFTISSLQPEDIATYYCQQGNTLPYTFGQGTKVEIK
notes: EU numbering

Assays:
mouse FcRn = target: T1, mouse FcRn; test: SPR (Biacore), mouse FcRn, pH 7.0
Description: The binding between antibody and mouse FcRn was kinetically analyzed using Biacore T100 (GE Healthcare). An appropriate amount of protein L (ACTIGEN) was immobilized onto Sensor chip CM4 (GE Healthcare) by the amino coupling method, and the chip was allowed to capture an antibody of interest. Then, diluted FcRn solutions and running buffer (as a reference solution) were injected to allow mouse FcRn to interact with the antibody captured on the sensor chip. The running buffer used contains 50 mmol/l sodium phosphate, 150 mmol/l NaCl, and 0.05% (w/v) Tween20 (pH 7.4). FcRn was diluted using each buffer. The sensorchip was regenerated using 10 mmol/l glycine-HCl (pH 1.5). Assays were carried out exclusively at 25 degrees C. The association rate constant ka (1/Ms) and dissociation rate constant kd (1/s), both of which are kinetic parameters, were calculated based on the sensorgrams obtained in the assays, and the KD (M) of each antibody for mouse FcRn was determined from these values. Each parameter was calculated using Biacore T100 Evaluation Software (GE Healthcare).

mouse FcγRIV = target: T4, mouse FcγRIV (mouse); test: SPR (Biacore), antibody captured on Protein L, mouse FcγR as analyte, pH 7.4, 25 C
T4 construct: Bought soluble receptor; also called mFcgRIV; mFcgR IV
T4 sequence (A0A0B4J1G0 21-203): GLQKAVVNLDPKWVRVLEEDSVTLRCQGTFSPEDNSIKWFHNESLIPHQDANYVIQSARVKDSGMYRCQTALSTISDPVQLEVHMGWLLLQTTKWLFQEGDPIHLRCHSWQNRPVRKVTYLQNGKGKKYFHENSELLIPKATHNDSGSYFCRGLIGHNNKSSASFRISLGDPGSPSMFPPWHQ
Description: Binding activity between the antibodies and mouse FcγRI, FcγRII, FcγRIII and FcγRIV (R&D Systems, Sin θ Biological) (hereinafter referred to as mouse FcγRs) was evaluated using the Biacore T100 or T200 (GE Healthcare). The antibodies being tested were captured by Protein L (ACTIGEN) that was immobilized in suitable amounts on the CM4 Sensor Chip (GE Healthcare) by amine coupling. Next, the diluted mouse FcγRs and a running buffer used as a blank were injected to allow interaction with the antibody captured on the sensor chip. A buffer consisting of 20 mmol/L ACES, 150 mmol/L NaCl and 0.05% (w/v) Tween 20 (pH 7.4) was used for the running buffer, and this buffer was also used to dilute the mouse FcγRs. 10 mmol/L glycine-HCl (pH 1.5) was used to regenerate the sensor chip. All measurements were carried out at 25° C.

FcγRIIb [1] = target: T2, FcγRIIb; test: ratio of SPR KD values of this variant (FcγRIIaH over FcγRIIb)
Excerpt: (§1) Furthermore, KD(IIaR)/KD(IIb) and KD(IIaH)/KD(IIb) in the table respectively represent the value obtained by dividing the KD value of each variant for FcγRIIaR by the KD value of each variant for FcγRIIb, and the value obtained by dividing the KD value of each variant for FcγRIIaH by the KD value of each variant for FcγRIIb.

FcγRIIb [2] = target: T2, FcγRIIb; test: ratio of SPR KD values of this variant (FcγRIIaR over FcγRIIb)
Excerpt: as §1

FcγRIIa type H = target: T3, FcγRIIa type H; test: SPR (Biacore), captured antibody, FcγR as analyte, method of Example 14
FcγRIIb [3] = target: T2, FcγRIIb; test: as above
FcγRIIIa type V = target: T5, FcγRIIIa type V (human, UniProt P08637 17-208, limits assumed); test: as above
T5 construct: also called FcγRIIIaV; FcγRIIIa(V)
T5 sequence (P08637 other isoform, or with tags, fused parts or gaps limits assumed): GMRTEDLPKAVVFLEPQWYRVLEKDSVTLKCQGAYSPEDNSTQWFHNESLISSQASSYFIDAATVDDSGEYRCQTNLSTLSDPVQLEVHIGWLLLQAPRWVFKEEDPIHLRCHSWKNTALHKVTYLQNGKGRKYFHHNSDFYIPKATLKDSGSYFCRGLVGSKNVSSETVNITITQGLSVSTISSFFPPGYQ

FcγRIa = target: T6, FcγRIa (human, UniProt P12314 16-292, limits assumed); test: as above
T6 construct: also called CD64; FcgRIa
T6 sequence (P12314 16-292 limits assumed): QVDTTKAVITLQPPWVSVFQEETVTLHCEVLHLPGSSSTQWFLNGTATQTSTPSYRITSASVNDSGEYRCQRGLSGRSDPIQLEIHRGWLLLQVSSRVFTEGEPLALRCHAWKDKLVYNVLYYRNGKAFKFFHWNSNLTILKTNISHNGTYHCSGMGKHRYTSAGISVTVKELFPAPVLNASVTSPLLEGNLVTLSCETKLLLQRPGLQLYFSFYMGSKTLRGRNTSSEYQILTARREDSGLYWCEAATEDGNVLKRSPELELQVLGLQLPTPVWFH

Row | Binder | binding result (mouse FcRn) | BINDING AMOUNT (RU) (mouse FcγRIV) | KD (IIaH)/KD (IIb) (FcγRIIb [1]) | KD (IIaR)/KD (IIb) (FcγRIIb [2]) | Kd (FcγRIIa type H) [nM] | Kd (FcγRIIb [3]) [nM] | Kd (FcγRIIIa type V) [nM] | Kd (FcγRIa) [nM]
1 | B1 | no binding | -3.5 | – | – | – | – | – | –
2 | B2 | – | – | 191 | 16.7 | 1600 | 64 | 55000 | –
3 | B3 | – | – | 290 | 18.6 | 1600 | – | – | 96
